The values that follow are results of earlier work, collected in article PMC4431351.

The data set addresses MUC1 tandem-repeat synthetic peptide (UniProt P15941). As to conditions: Probe assembled in 5 mM sodium phosphate pH 7.4, then PBS (10 mM sodium phosphate, 140 mM NaCl, 2.70 mM KCl, pH 7.6), room temperature; cell incubation details ….
Sequence of UniProt P15941 (P15941 whole entry): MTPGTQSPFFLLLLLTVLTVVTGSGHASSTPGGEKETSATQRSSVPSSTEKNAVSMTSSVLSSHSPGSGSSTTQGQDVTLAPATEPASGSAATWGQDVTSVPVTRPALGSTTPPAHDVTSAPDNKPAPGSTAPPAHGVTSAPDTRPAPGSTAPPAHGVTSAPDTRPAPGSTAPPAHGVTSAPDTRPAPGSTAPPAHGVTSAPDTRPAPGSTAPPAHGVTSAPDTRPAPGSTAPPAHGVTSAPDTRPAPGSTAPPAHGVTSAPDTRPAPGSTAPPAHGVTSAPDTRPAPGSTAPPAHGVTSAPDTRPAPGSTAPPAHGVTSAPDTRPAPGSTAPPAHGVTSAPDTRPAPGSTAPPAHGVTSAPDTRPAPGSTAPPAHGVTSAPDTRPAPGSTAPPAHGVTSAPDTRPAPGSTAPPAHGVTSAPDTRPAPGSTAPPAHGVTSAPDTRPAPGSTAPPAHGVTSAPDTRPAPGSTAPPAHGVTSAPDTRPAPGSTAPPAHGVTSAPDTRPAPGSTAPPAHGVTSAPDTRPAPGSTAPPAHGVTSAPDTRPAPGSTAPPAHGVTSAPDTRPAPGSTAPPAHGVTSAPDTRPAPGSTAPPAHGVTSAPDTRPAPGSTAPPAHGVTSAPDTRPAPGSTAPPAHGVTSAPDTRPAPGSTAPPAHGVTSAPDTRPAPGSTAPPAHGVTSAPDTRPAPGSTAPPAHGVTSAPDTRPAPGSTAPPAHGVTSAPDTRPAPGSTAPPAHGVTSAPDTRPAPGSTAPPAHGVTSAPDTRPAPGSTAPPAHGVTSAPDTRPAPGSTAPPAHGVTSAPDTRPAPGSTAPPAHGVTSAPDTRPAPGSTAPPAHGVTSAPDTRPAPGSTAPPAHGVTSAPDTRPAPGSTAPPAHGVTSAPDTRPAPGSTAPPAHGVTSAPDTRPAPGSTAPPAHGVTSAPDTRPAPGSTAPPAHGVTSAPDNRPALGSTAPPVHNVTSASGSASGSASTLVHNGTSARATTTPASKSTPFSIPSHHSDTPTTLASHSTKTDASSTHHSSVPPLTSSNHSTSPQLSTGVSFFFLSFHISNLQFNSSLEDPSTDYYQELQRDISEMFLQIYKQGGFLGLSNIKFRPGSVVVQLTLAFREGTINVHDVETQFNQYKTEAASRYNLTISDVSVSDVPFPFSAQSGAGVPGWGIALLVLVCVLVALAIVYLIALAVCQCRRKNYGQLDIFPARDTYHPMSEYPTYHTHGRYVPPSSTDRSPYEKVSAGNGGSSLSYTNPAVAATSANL

A word on the Kd: it is the equilibrium constant for the complex coming apart. Take “GCAGTTGATCCTTTGGATACCCTGG [AptMUC1 (25-mer)]”: the Kd was 0.1 nM.
